Experimental data published in IntAct's records for PubMed 28065597.

B1: Tyrosine-protein phosphatase non-receptor type 12 (Homo sapiens), Q05209 (parent)
chain: MEQVEILRKFIQRVQAMKSPDHNGEDNFARDFMRLRRLSTKYRTEKIYPTATGEKEENVKKNRYKDILPFDHSRVKLTLKTPSQDSDYINANFIKGVYGPKAYVATQGPLANTVIDFWRMIWEYNVVIIVMACREFEMGRKKCERYWPLYGEDPITFAPFKISCEDEQARTDYFIRTLLLEFQNESRRLYQFHYVNWPDHDVPSSFDSILDMISLMRKYQEHEDVPICIHCSAGCGRTGAICAIDYTWNLLKAGKIPEEFNVFNLIQEMRTQRHSAVQTKEQYELVHRAIAQLFEKQLQLYEIHGAQKIADGVNEINTENMVSSIEPEKQDSPPPKPPRTRSCLVEGDAKEEILQPPEPHPVPPILTPSPPSAFPTVTTVWQDNDRYHPKPVLHMVSSEQHSADLNRNYSKSTELPGKNESTIEQIDKKLERNLSFEIKKVPLQEGPKSFDGNTLLNRGHAIKIKSASPCIADKISKPQELSSDLNVGDTSQNSCVDCSVTQSNKVSVTPPEESQNSDTPPRPDRLPLDEKGHVTWSFHGPENAIPIPDLSEGNSSDINYQTRKTVSLTPSPTTQVETPDLVDHDNTSPLFRTPLSFTNPLHSDDSDSDERNSDGAVTQNKTNISTASATVSAATSTESISTRKVLPMSIARHNIAGTTHSGAEKDVDVSEDSPPPLPERTPESFVLASEHNTPVRSEWSELQSQERSEQKKSEGLITSENEKCDHPAGGIHYEMCIECPPTFSDKREQISENPTEATDIGFGNRCGKPKGPRDPPSEWT
B2: Receptor tyrosine-protein kinase erbB-4 (Homo sapiens), Q15303 (parent)
chain: MKPATGLWVWVSLLVAAGTVQPSDSQSVCAGTENKLSSLSDLEQQYRALRKYYENCEVVMGNLEITSIEHNRDLSFLRSVREVTGYVLVALNQFRYLPLENLRIIRGTKLYEDRYALAIFLNYRKDGNFGLQELGLKNLTEILNGGVYVDQNKFLCYADTIHWQDIVRNPWPSNLTLVSTNGSSGCGRCHKSCTGRCWGPTENHCQTLTRTVCAEQCDGRCYGPYVSDCCHRECAGGCSGPKDTDCFACMNFNDSGACVTQCPQTFVYNPTTFQLEHNFNAKYTYGAFCVKKCPHNFVVDSSSCVRACPSSKMEVEENGIKMCKPCTDICPKACDGIGTGSLMSAQTVDSSNIDKFINCTKINGNLIFLVTGIHGDPYNAIEAIDPEKLNVFRTVREITGFLNIQSWPPNMTDFSVFSNLVTIGGRVLYSGLSLLILKQQGITSLQFQSLKEISAGNIYITDNSNLCYYHTINWTTLFSTINQRIVIRDNRKAENCTAEGMVCNHLCSSDGCWGPGPDQCLSCRRFSRGRICIESCNLYDGEFREFENGSICVECDPQCEKMEDGLLTCHGPGPDNCTKCSHFKDGPNCVEKCPDGLQGANSFIFKYADPDRECHPCHPNCTQGCNGPTSHDCIYYPWTGHSTLPQHARTPLIAAGVIGGLFILVIVGLTFAVYVRRKSIKKKRALRRFLETELVEPLTPSGTAPNQAQLRILKETELKRVKVLGSGAFGTVYKGIWVPEGETVKIPVAIKILNETTGPKANVEFMDEALIMASMDHPHLVRLLGVCLSPTIQLVTQLMPHGCLLEYVHEHKDNIGSQLLLNWCVQIAKGMMYLEERRLVHRDLAARNVLVKSPNHVKITDFGLARLLEGDEKEYNADGGKMPIKWMALECIHYRKFTHQSDVWSYGVTIWELMTFGGKPYDGIPTREIPDLLEKGERLPQPPICTIDVYMVMVKCWMIDADSRPKFKELAAEFSRMARDPQRYLVIQGDDRMKLPSPNDSKFFQNLLDEEDLEDMMDAEEYLVPQAFNIPPPIYTSRARIDSNRSEIGHSPPPAYTPMSGNQFVYRDGGFAAEQGVSVPYRAPTSTIPEAPVAQGATAEIFDDSCCNGTLRKPVAPHVQEDSSTQRYSADPTVFAPERSPRGELDEEGYMTPMRDKPKQEYLNPVEENPFVSRRKNGDLQALDNPEYHNASNGPPKAEDEYVNEPLYLNTFANTLGKAEYLKNNILSMPEKAKKAFDNPDYWNHSLPPRSTLQHPDYLQEYSTKYFYKQNGRIRPIVAENPEYLSEFSLKPGTVLPPPPYRHRNTVV
partner: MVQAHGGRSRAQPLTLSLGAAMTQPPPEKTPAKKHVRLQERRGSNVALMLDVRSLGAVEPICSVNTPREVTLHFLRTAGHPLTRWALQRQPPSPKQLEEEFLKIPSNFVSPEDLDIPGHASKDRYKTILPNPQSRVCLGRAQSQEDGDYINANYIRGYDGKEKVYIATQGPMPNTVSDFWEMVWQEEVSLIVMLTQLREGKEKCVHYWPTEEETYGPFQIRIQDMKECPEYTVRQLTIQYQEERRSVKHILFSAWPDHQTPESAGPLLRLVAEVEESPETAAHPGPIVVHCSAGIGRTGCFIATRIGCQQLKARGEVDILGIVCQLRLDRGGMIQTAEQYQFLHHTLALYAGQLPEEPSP
B3: Macrophage-stimulating protein receptor (Mus musculus), Q62190 (parent)
chain: MGLPLPLLQSSLLLMLLLRLSAASTNLNWQCPRIPYAASRDFSVKYVVPSFSAGGRVQATAAYEDSTNSAVFVATRNHLHVLGPDLQFIENLTTGPIGNPGCQTCASCGPGPHGPPKDTDTLVLVMEPGLPALVSCGSTLQGRCFLHELEPRGKALHLAAPACLFSANNNKPEACTDCVASPLGTRVTVVEQGHASYFYVASSLDPELAASFSPRSVSIRRLKSDTSGFQPGFPSLSVLPKYLASYLIKYVYSFHSGDFVYFLTVQPISVTSPPSALHTRLVRLNAVEPEIGDYRELVLDCHFAPKRRRRGAPEGTQPYPVLQAAHSAPVDAKLAVELSISEGQEVLFGVFVTVKDGGSGMGPNSVVCAFPIYHLNILIEEGVEYCCHSSNSSSLLSRGLDFFQTPSFCPNPPGGEASGPSSRCHYFPLMVHASFTRVDLFNGLLGSVKVTALHVTRLGNVTVAHMGTVDGRVLQVEIARSLNYLLYVSNFSLGSSGQPVHRDVSRLGNDLLFASGDQVFKVPIQGPGCRHFLTCWRCLRAQRFMGCGWCGDRCDRQKECPGSWQQDHCPPEISEFYPHSGPLRGTTRLTLCGSNFYLRPDDVVPEGTHQITVGQSPCRLLPKDSSSPRPGSLKEFIQELECELEPLVTQAVGTTNISLVITNMPAGKHFRVEGISVQEGFSFVEPVLTSIKPDFGPRAGGTYLTLEGQSLSVGTSRAVLVNGTQCRLEQVNEEQILCVTPPGAGTARVPLHLQIGGAEVPGSWTFHYKEDPIVLDISPKCGYSGSHIMIHGQHLTSAWHFTLSFHDGQSTVESRCAGQFVEQQQRRCRLPEYVVRNPQGWATGNLSVWGDGAAGFTLPGFRFLPPPSPLRAGLVELKPEEHSVKVEYVGLGAVADCVTVNMTVGGEVCQHELRGDVVICPLPPSLQLGKDGVPLQVCVDGGCHILSQVVRSSPGRASQRILLIALLVLILLVAVLAVALIFNSRRRKKQLGAHSLSPTTLSDINDTASGAPNHEESSESRDGTSVPLLRTESIRLQDLDRMLLAEVKDVLIPHEQVVIHTDQVIGKGHFGVVYHGEYTDGAQNQTHCAIKSLSRITEVQEVEAFLREGLLMRGLHHPNILALIGIMLPPEGLPRVLLPYMRHGDLLHFIRSPQRNPTVKDLVSFGLQVACGMEYLAEQKFVHRDLAARNCMLDESFTVKVADFGLARGVLDKEYYSVRQHRHARLPVKWMALESLQTYRFTTKSDVWSFGVLLWELLTRGAPPYPHIDPFDLSHFLAQGRRLPQPEYCPDSLYHVMLRCWEADPAARPTFRALVLEVKQVVASLLGDHYVQLTAAYVNVGPRAVDDGSVPPEQVQPSPQHCRSTSKPRPLSEPPLPT
partner: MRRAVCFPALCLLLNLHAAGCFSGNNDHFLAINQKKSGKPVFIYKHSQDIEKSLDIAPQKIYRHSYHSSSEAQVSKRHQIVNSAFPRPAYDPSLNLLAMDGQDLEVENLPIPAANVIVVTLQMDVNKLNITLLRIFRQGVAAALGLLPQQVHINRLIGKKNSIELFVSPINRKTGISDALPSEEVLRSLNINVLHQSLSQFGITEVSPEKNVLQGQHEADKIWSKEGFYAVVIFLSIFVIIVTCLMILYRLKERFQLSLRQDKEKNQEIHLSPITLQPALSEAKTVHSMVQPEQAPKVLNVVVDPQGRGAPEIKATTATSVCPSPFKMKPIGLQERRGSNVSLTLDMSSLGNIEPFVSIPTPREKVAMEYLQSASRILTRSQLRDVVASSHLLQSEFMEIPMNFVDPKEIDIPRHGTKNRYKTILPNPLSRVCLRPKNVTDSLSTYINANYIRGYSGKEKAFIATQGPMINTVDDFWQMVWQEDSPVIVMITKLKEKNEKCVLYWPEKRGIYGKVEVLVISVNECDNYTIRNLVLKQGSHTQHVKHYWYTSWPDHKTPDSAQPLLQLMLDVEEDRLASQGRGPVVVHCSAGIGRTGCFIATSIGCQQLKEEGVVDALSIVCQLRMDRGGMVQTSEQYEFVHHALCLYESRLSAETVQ
B4: Tyrosine-protein phosphatase non-receptor type 7 (Homo sapiens), P35236 (parent)
chain: B2 partner
B5: Receptor tyrosine-protein kinase erbB-4 (Homo sapiens), Q15303 (parent)
chain: B2 chain
B6: Receptor tyrosine-protein kinase erbB-4 (Homo sapiens), Q15303 (parent)
chain: B2 chain
partner: B3 partner
B7: Receptor tyrosine-protein kinase erbB-4 (Homo sapiens), Q15303 (parent)
chain: B2 chain
partner: B1 chain
B8: Receptor-type tyrosine-protein phosphatase R (Homo sapiens), Q15256 (parent)
chain: B3 partner

Variants of: B1
Conditions: with igf1r_human IGF1R
Target sequence in this assay (P08069 whole entry, looked up): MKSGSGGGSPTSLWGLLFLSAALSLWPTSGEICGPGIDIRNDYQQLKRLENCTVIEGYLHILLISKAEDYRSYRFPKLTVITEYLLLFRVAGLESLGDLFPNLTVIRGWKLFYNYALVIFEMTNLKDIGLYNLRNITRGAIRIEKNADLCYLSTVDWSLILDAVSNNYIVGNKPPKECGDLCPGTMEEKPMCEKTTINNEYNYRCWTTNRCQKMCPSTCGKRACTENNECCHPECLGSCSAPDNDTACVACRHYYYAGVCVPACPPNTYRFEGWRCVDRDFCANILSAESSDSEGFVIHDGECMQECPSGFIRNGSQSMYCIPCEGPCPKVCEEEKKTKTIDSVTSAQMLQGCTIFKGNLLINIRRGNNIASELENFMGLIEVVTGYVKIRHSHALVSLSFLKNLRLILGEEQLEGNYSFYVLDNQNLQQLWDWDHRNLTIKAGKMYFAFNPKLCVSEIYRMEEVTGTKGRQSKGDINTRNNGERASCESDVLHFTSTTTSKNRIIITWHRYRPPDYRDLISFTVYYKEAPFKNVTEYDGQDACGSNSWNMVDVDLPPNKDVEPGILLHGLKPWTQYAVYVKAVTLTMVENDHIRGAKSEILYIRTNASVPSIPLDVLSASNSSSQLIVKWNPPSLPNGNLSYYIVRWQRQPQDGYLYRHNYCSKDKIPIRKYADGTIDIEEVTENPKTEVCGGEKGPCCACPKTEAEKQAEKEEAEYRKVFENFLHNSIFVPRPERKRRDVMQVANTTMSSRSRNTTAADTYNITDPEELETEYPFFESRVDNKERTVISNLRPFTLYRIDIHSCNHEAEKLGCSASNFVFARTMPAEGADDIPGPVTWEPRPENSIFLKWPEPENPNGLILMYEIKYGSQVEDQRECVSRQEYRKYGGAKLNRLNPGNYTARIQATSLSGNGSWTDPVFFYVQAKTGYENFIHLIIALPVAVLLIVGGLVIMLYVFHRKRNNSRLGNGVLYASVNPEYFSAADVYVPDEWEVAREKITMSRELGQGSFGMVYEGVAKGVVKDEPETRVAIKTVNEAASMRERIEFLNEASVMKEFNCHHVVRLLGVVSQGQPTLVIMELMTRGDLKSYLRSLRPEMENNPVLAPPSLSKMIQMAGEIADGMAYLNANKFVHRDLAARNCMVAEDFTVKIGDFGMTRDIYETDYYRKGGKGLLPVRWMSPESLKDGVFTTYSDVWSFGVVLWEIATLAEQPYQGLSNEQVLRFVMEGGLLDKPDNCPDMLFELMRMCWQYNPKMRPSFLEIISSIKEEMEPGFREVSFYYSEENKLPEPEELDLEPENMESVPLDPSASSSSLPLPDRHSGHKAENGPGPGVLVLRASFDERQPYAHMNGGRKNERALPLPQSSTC

Variant	effect of a mutation on the interaction
C235S	decreasing interaction
D201A;C235S	with no effect

Variants of: B1
Conditions: with erbb4_human ERBB4, Q15303

Variant	effect of a mutation on the interaction
C231S	with no effect
D199A;C231S	disrupting interaction

Variants of: B1
Conditions: with erbb4_human ERBB4, Q15303
Remark: another data set of the same source

Variant	effect of a mutation on the interaction
C231S	disrupting interaction

Variants of: B1
Conditions: with fgfr2_human FGFR2, P21802
Target sequence in this assay (P21802 whole entry, looked up): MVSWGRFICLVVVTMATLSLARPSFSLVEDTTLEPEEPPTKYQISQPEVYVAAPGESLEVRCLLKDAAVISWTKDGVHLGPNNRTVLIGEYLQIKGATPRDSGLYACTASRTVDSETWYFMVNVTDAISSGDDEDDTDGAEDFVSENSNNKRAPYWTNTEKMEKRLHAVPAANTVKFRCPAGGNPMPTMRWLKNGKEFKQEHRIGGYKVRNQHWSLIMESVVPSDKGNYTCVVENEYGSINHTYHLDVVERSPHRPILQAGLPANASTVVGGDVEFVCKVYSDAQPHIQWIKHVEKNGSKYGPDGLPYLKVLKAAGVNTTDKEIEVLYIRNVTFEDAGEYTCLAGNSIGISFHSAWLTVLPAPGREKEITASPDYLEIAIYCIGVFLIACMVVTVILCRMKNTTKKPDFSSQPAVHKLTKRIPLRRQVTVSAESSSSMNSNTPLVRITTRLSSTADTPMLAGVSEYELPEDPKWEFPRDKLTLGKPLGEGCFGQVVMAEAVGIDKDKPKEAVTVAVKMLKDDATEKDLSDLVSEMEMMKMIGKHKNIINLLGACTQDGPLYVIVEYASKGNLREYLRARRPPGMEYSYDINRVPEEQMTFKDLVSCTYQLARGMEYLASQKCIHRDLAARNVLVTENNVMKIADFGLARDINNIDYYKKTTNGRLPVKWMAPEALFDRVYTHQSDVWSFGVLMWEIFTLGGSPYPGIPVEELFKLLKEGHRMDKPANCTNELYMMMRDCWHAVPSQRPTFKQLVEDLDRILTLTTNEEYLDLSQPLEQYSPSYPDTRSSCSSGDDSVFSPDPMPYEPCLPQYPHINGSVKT

Variant	effect of a mutation on the interaction
C231S	disrupting interaction
D199A;C231S	disrupting interaction

Variants of: B1
Conditions: with fgfr4_human FGFR4, P22455
Target sequence in this assay (P22455 whole entry, looked up): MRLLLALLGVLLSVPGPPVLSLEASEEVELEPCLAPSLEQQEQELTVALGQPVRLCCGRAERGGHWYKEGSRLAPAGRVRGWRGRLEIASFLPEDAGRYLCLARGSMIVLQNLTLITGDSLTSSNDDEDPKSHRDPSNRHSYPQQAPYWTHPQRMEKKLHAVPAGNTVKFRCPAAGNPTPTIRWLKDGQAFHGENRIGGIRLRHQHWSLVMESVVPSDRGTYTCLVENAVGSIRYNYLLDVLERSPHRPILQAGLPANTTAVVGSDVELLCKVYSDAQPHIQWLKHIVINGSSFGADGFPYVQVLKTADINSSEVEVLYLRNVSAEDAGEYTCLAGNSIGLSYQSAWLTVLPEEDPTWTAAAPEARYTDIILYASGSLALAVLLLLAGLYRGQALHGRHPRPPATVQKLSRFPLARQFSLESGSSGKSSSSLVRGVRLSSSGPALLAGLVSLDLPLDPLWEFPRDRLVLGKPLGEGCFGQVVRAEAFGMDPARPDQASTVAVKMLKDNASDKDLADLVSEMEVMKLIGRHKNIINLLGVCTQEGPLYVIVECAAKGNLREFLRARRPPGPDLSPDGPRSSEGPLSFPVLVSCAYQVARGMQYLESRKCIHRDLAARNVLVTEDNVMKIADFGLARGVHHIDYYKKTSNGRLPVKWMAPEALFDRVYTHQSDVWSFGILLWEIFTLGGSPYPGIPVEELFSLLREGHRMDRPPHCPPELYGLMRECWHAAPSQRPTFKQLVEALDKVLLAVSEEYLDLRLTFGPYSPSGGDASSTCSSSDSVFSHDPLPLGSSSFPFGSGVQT

Variant	effect of a mutation on the interaction
C231S	increasing interaction

Variants of: B1
Conditions: with vgfr2_human KDR
Target sequence in this assay (P35968 whole entry): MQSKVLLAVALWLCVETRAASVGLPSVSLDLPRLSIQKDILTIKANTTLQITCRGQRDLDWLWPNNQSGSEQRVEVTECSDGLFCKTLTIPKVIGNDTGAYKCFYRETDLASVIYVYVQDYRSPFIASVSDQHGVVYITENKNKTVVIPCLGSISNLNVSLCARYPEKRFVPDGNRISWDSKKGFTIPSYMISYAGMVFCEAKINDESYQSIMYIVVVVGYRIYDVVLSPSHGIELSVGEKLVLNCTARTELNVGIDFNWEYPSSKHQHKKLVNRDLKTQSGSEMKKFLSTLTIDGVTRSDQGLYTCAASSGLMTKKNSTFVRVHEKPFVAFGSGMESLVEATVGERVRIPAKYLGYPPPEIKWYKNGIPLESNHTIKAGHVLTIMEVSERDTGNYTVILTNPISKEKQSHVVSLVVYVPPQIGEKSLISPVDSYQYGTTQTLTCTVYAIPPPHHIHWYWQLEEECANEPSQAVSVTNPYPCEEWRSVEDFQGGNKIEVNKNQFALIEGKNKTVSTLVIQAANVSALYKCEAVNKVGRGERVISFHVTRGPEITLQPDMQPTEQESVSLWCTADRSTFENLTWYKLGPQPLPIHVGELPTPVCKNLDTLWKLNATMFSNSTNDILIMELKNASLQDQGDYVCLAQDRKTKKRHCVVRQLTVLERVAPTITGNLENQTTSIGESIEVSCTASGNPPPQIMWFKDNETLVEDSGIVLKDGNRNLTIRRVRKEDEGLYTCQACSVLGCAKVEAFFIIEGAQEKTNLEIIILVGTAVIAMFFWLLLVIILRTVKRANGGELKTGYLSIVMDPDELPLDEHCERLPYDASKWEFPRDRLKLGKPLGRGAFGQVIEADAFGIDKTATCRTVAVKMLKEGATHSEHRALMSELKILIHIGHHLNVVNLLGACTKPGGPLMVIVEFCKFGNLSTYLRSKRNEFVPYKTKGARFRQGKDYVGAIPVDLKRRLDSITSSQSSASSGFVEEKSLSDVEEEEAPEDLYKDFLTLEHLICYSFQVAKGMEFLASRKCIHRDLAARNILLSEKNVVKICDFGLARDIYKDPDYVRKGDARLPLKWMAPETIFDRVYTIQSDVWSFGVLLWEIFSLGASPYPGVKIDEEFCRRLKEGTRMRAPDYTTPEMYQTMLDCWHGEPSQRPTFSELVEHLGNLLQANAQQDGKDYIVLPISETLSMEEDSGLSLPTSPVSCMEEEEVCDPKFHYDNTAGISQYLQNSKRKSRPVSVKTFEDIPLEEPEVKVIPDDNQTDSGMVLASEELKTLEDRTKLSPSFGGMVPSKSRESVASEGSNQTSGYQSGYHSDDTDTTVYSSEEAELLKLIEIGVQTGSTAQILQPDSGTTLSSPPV

Variant	effect of a mutation on the interaction
C231S	with no effect
D199A;C231S	with no effect

Variants of: B1
Conditions: with igf1r_human IGF1R
Remark: another data set of the same source
Target sequence in this assay (P08069 whole entry, looked up): as the sequence (P08069 whole entry, looked up) above

Variant	effect of a mutation on the interaction
C231S	increasing interaction
D199A;C231S	disrupting interaction

Variants of: B2
Conditions: with ptn7_human PTPN7, P35236

Variant	effect of a mutation on the interaction
D843N	increasing interaction

Variants of: B3
Conditions: with ptprr_human PTPRR, Q15256

Variant	effect of a mutation on the interaction
K1091A	decreasing interaction

Variants of: B4
Conditions: with erbb4_human ERBB4, Q15303

Variant	effect of a mutation on the interaction
C291S	with no effect
D257A;C291S	with no effect

Variants of: B4
Conditions: with igf1r_human IGF1R
Target sequence in this assay (P08069 whole entry, looked up): as above

Variant	effect of a mutation on the interaction
C291S	with no effect
D257A;C291S	with no effect

Variants of: B4
Conditions: with igf1r_human IGF1R
Remark: another data set of the same source
Target sequence in this assay (P08069 whole entry, looked up): as above

Variant	effect of a mutation on the interaction
C291S	disrupting interaction
D257A;C291S	increasing interaction

Variants of: B5
Conditions: with ptn6_human PTPN6, P29350

Variant	effect of a mutation on the interaction
D843N	with no effect

Variants of: B6
Conditions: with ptprr_human PTPRR, Q15256

Variant	effect of a mutation on the interaction
D843N	with no effect

Variants of: B7
Conditions: with ptn12_human PTPN12, Q05209

Variant	effect of a mutation on the interaction
D843N	with no effect

Variants of: B7
Conditions: with ptn12_human PTPN12, Q05209
Remark: another data set of the same source

Variant	effect of a mutation on the interaction
D843N	increasing interaction

Variants of: B8
Conditions: with erbb4_human ERBB4, Q15303

Variant	effect of a mutation on the interaction
D554A;C588S	with no effect
C588S	with no effect

Variants of: B8
Conditions: with ret_human RET

Variant	effect of a mutation on the interaction
D554A;C588S	with no effect
C588S	with no effect

Variants of: B8
Conditions: with igf1r_human IGF1R
Target sequence in this assay (P08069 whole entry, looked up): as above

Variant	effect of a mutation on the interaction
D554A;C588S	decreasing interaction
C588S	decreasing interaction

Variants of: B8
Conditions: with ret_human RET
Remark: another data set of the same source

Variant	effect of a mutation on the interaction
D554A;C588S	disrupting interaction
Y249F	increasing interaction
Y249F;D554A;C588S	disrupting interaction
C588S	disrupting interaction

Variants of: B8
Conditions: with ron_mouse Mst1r, Q62190

Variant	effect of a mutation on the interaction
D554A;C588S	disrupting interaction
Y249F	increasing interaction
C588S	disrupting interaction

Variants of: B8
Conditions: with ntrk1_human NTRK1, P04629

Variant	effect of a mutation on the interaction
D554A;C588S	with no effect
C588S	with no effect

Variants of: B8
Conditions: with tie2_human TEK

Variant	effect of a mutation on the interaction
D554A;C588S	decreasing interaction
C588S	decreasing interaction

Variants of: B8
Conditions: with ron_mouse Mst1r

Variant	effect of a mutation on the interaction
D554A;C588S	increasing interaction
C588S	increasing interaction

Variants of: B8
Conditions: with fgfr2_human FGFR2, P21802
Target sequence in this assay (P21802 whole entry, looked up): as the sequence (P21802 whole entry, looked up) above

Variant	effect of a mutation on the interaction
D554A;C588S	decreasing interaction
C588S	disrupting interaction

Variants of: B8
Conditions: with fgfr4_human FGFR4, P22455
Target sequence in this assay (P22455 whole entry, looked up): as the sequence (P22455 whole entry, looked up) above

Variant	effect of a mutation on the interaction
D554A;C588S	decreasing interaction
C588S	decreasing interaction

Variants of: B8
Conditions: with vgfr2_human KDR
Target sequence in this assay (P35968 whole entry): as the sequence (P35968 whole entry) above

Variant	effect of a mutation on the interaction
D554A;C588S	with no effect
C588S	with no effect

Variants of: B8
Conditions: with igf1r_human IGF1R
Remark: another data set of the same source
Target sequence in this assay (P08069 whole entry, looked up): as the sequence (P08069 whole entry, looked up) above

Variant	effect of a mutation on the interaction
D554A;C588S	with no effect
C588S	with no effect
